Experimental findings from patent publication US20220154221, “SITE SPECIFIC RECOMBINASE INTEGRASE VARIANTS AND USES THEREOF IN GENE EDITING IN EUKARYOTIC CELLS” (RAMOT AT TEL-AVIV UNIVERSITY LTD., published 2022) are described below.

Data set [1] concerns the target T1, HK022 Int E174K+I43F+R319G (Bacteriophage HK022, UniProt P16407 SEQ:1-357, I43F,E174K,R319G).
T1 sequence: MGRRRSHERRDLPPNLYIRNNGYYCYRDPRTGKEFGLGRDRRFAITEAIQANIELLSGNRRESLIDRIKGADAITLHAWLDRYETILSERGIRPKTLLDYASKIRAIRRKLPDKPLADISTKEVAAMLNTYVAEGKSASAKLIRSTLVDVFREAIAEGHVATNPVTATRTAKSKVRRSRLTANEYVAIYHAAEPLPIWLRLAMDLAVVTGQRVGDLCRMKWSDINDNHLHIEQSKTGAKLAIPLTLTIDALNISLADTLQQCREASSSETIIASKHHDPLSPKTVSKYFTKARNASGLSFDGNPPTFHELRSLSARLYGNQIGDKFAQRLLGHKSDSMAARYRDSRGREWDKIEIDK
Description: cell_activity; genomic RMCE at DMD2/DMD3, HEK293. As to conditions: chain copies: 4. As for the experimental part:
(§1) Plasmid transformations were performed by electroporation (Sambrook, J., et al (1989) Cold Spring Harbor, N.Y.). Plasmids and oligomers are listed in Tables 1,3,5 and 2,4,6 respectively. Human embryonic kidney cells HEK293, 293T, and 293 Flp-In were cultured in Dulbecco's modified Eagle's medium (DMEM). For transient transfection 293T cells (˜6×10⁵) were plated in a 6 well plate and 24 h later treated with 3 μg of the proper plasmid DNA using PureFection Transfection Reagent (System Biosciences, Mountain View, Calif., USA). For the model chromosomal assay transfection, 293 Flp-In cells (˜6×10⁵) were plated in a 6 well plate and 24 h later treated with 5.5 μg of the proper plasmid DNA using Mirus Transfection Reagent (Mirus, Wis., USA). For the CTNS and DMD chromosomal assay transfection, HEK293 cells (˜6×10⁵) were plated in a 6 well plate and 24 h later treated with 3 μg of the proper plasmid DNA using PureFection Transfection Reagent.
(§2) In the DMD model, DMD2 and DMD3 “attB” sites were chosen which are 23 Kb apart located in introns 43 and 44 respectively that flank exon 44 (FIG. 12B). The relevant deletion mutation located in exon 44 is described (GM23715, Coriell institute). A GFP promoter trap whose incoming plasmid carried a splicing acceptor (SA), a ribosomal skipping site (2A) and the ORF of EGFP with a polyA sequence (FIG. 12A) was used. All are flanked with the two relevant “attP”s 1.4 Kb apart. […] The correct sequence of all PCR products was confirmed by NGS.

A further data set has as its target T2, HK022 Int E174K+D278K (Bacteriophage HK022, UniProt P16407 SEQ:1-357, E174K,D278K).
T2 sequence: T1 sequence with F43I, D278K, G319R
In words: cell_activity; genomic RMCE at DMD2/DMD3, HEK293. Conditions: chain copies: 4. As for the experimental part: as §1, §2

Data set [2] concerns the target T1, HK022 Int E174K+I43F+R319G. Description: cell_activity; trans attB x attP, HEK293T. Conditions: chain copies: 4. How it is done:
(§3) To examine the activity of these Int variants, an analytic assay was performed of a transient trans integrative recombination reaction using the wild type attB and attP sites in human HEK293T cells in which each att site is located on a different substrate plasmid (FIG. 2B). The first substrate (pMK221) carries the attP site downstream to the cytomegalovirus promoter (CMV). The second plasmid (pMK223) carries the attB downstream to the open reading frame (ORF) of the green fluorescent protein (GFP) and upstream to a transcription terminator (Stop).
(§4) A productive attB×attP reaction forms a dimer plasmid encoding CMV-promoted GFP expression (FIG. 2B). HEK293T cells were co-transfected with these two substrate plasmids, with or without an Int-expressing plasmid (the oInt pNA979, or one of its Int mutant derivatives). 48 hours post-transfection GFP expressing cells were analyzed by fluorescence-activated cell sorting (FACS).

For a further data set, the target named is T3, HK022 Int D278K (Bacteriophage HK022, UniProt P16407 SEQ:1-357, D278K).
T3 sequence: T1 sequence with F43I, K174E, D278K, G319R
In words: cell_activity; trans attB x attP, HEK293T. Conditions: chain copies: 4. How it is done: as §3, §4

Data set [3] has as its target T4, HK022 integrase (oInt / wild type) (Bacteriophage HK022, UniProt P16407 SEQ:1-357).
T4 sequence: T1 sequence with F43I, K174E, G319R
Description: cell_activity; trans attB x attP integration, HEK293T, reference. As to conditions: tags: human codon-optimised (oInt) in human cells; native gene in E. coli; chain copies: 4. As for the experimental part: as §3, §4

Another data set deals with T5, HK022 Int E174K (Bacteriophage HK022, UniProt P16407 SEQ:1-357, E174K).
T5 sequence: T1 sequence with F43I, G319R
In words: cell_activity; trans attB x attP, HEK293T (Example 8 quotes 147%). As to conditions: chain copies: 4. How it is done:
as §3, §4

Where a chain is given by its changes, count along the chain named.

B1: DMD3 attB (dsDNA)
DNA 1: GTGCTTTAAAAAGAAAAGGGG
DNA 2: CCCCTTTTCTTTTTAAAGCAC
In the case of B1, the activity (in data set [1]; with HK022 Int E174K+D278K) was 0.4 % cells each time.

B2: wild-type attB (dsDNA)
DNA 1: GCACTTTAGGTGAAAAAGGTT
DNA 2: AACCTTTTTCACCTAAAGTGC
Turning to B2, the values for the integration activity (in data set [2]; with HK022 Int D278K) were 2.3 fold of oInt and 1.48 fold of oInt, respectively. Moreover, the integrative recombination activity in data set [3] was 1 fold of oInt. In addition, in the data set with HK022 Int E174K, the “recombination activity (GFP+ cells, relative to oInt)” value was 1.54 fold of oInt.

B3: DMD2 attB (dsDNA)
DNA 1: TTGCTTAATGGAGAAAAGGTA
DNA 2: TACCTTTTCTCCATTAAGCAA
Regarding B3, the activity (in data set [1]; with HK022 Int E174K+D278K) was 0.4 % cells throughout.
